According to PMC4726272:

Tests used:
[1] = tested on: OmpR-6His (Dickeya dadantii 3937 (EC3937)); test: EMSA; details: 10 mM Tris pH 7.5, 50 mM NaCl, 0.5 mM DTT, 1 mM MgCl2, 2.5% glycerol; 20 min at room temperature; 50 ng DNA in 20 ul; 6% acrylamide-TBE gel
[2] = tested on: RcsB-6His (Dickeya dadantii 3937 (EC3937)?); test: EMSA; details: 10 mM Tris pH 7.5, 50 mM NaCl, 0.5 mM DTT, 1 mM MgCl2, 2.5% glycerol; 20 min at room temperature; 50 ng DNA in 20 ul; 6% acrylamide-TBE gel

In the case of opgC promoter region, the binding [1] was 500 ng and the binding [2] was 300 ng.
